The source of these data is paper PMC4596688, “Structural determinants of nuclear export signal orientation in binding to exportin CRM1” (eLife, 2015).

Chain of Full-length human CRM1 (HsCRM1) (O14980 whole entry): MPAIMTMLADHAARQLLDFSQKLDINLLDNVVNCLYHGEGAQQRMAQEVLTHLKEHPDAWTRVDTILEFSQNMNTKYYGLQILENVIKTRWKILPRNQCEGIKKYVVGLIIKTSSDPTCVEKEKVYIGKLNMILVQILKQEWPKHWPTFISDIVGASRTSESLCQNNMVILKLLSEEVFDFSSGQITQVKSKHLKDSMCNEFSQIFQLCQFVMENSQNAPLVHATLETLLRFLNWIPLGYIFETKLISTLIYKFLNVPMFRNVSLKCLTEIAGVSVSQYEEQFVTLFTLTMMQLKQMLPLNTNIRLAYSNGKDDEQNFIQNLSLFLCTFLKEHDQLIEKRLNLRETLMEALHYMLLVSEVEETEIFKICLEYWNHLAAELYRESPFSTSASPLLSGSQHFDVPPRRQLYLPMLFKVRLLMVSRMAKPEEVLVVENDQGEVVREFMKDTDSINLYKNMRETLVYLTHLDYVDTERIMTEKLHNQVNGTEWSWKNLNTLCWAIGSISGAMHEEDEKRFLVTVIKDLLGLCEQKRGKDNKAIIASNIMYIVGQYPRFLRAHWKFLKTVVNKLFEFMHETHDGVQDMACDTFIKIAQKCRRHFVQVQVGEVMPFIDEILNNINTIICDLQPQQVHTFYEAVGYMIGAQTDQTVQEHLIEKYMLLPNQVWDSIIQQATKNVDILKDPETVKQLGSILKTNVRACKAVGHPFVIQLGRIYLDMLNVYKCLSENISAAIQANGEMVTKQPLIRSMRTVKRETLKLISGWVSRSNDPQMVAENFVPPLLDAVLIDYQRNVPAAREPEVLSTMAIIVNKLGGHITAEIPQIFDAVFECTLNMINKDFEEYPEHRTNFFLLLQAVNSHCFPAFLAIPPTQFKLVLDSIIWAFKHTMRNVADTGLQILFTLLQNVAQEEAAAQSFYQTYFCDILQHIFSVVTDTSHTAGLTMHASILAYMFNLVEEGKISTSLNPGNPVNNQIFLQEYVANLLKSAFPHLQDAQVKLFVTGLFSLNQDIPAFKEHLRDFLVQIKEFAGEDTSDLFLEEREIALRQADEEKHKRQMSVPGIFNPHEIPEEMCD

The first assay has as its target Full-length human CRM1 (HsCRM1) (UniProt O14980). As to the kind of experiment: GST pull-down, SDS/PAGE band intensity. The note with it: excess ScRanGTP; triplicate experiments; parent: est. 100; read off a plot.
GST-hRio2NES-R F13P: the percent of parent came out at 33%.

In the case of GST-hRio2NES-R F13M, the percent of parent was 110%.

For GST-hRio2NES-R F13W, the percent of parent turned out to be 31%.

As for GST-hRio2NES-R M11Y, the percent of parent was 10%.

In the case of GST-hRio2NES-R M11P, the percent of parent was found to be 15%.

As for GST-hRio2NES-R M11F, the percent of parent came to 53%.

Take GST-hRio2NES-R M11V: the percent of parent came out at 17%.

For the substance GST-hRio2NES-R M11A, the percent of parent came out at 17%.

On to GST-hRio2NES-R M11I, for which the percent of parent is 57%.

For the substance GST-hRio2NES-R F13A, the percent of parent was 17%.

As for GST-hRio2NES-R F13Y, the percent of parent was 17%.

On to GST-hRio2NES-R M11W, for which the percent of parent was determined as 80%.

For a further assay the target is unchanged. The assay is described as follows: competition differential bleaching monitored with a microscale thermophoresis instrument; MBP-NESs serially diluted from 100 μM to 3 nM with 40 nM FITC-PKI^NES, mixed 1:1 with 300 nM HsCRM1 and 120 μM ScRan-GTP; TB buffer with 15% glycerol, 0.05% Tween-20; 1.5 hr, room temperature.
Conditions: not given
A general note: In MST a laser heats a spot of the sample, and binding alters the fluorescence response.
What is called Kd is the equilibrium constant for the complex coming apart. MBP-hRio2^NES-R (peptide) yielded a Kd of 2400 nM. In other words, the single-digit micromolar range.

Substance MBP-CPEB4^NES-R (peptide) came in with a Kd of 780 nM.

On to MBP-CPEB4^NES (peptide), for which the Kd was determined as 590 nM.

MBP-hRio2^NES (peptide) displayed a Kd of 2200 nM.
